# Measured values as given in patent US20240132578A1.
# B1: PGT-135 (5343_B08; 5344_E16) (antibody, V domains shown)
# VH: QLQMQESGPGLVKPSETLSLSCTVSGDSIRGGEWGDKDYHWGWVRHSAGKGLEWIGSIHWRGTTHYKESLRRRVSMSIDTSRNWFSLRLASVTAADTAVYFCARHRHHDVFMLVPIAGWFDVWGPGVQVTVSS
# VL: EIVMTQSPDTLSVSPGETVTLSCRASQNINKNLAWYQYKPGQSPRLVIFETYSKIAAFPARFVASGSGTEFTLTINNMQSEDVAVYYCQQYEEWPRTFGQGTKVDIK
# B2: 5147_N06 (PGT-130) human monoclonal antibody (antibody, V domains shown)
# VH: QVQLQESGPGLVKPAETLSLTCSVSGESINTGHYYWGWVRQVPGKGLEWIGHIHYTTAVLHNPSLKSRLTIKIYTLRNQITLRLSNVTAADTAVYHCVRSGGDILYYYEWQKPHWFSPWGPGIHVTVSS
# VL: QSALTQPPSASGSLGQSVTISCNGTSSDIGGWNFVSWYQQFPGRAPRLIIFEVNKRPSGVPGRFSGSKSGNSASLTVSGLQSDDEGQYFCSSLFGRWDVVFGGGTKLTVL
# B3: PGT-136 (5329_C19; 5366_P21) (antibody, V domains shown)
# VH: QLQLQESGPGLVKPSETLSLTCTVSGGSMRGTDWGENDFHYGWIRQSSAKGLEWIGSIHWRGRTTHYKTSFRSRATLSIDTSNNRFSLTFSFVTAADTAVYYCARHKYHDIFRVVPVAGWFDPWGQGLLVTVSS
# VL: EIVMTQSPPTLSVSPGETATLSCRASQNVKNNLAWYQLKPGQAPRLLIFDASSRAGGIPDRFSGSGYGTDFTLTVNSVQSEDFGDYFCQQYEEWPRTFGQGTKVDIK
# Legend:
# Test in all cases: cell-based or functional assay
# [1] = molecular target: HIV-1 MGRM-D-001 envelope glycoprotein (Env) on pseudovirus (HIV-1)
# [2] = molecular target: HIV-1 APV17 envelope glycoprotein (Env) on pseudovirus (HIV-1)
# [3] = molecular target: HIV-1 JRCSF envelope glycoprotein (Env) on pseudovirus (HIV-1) (UniProt P20871)
# [4] = molecular target: HIV-1 92UG005 envelope glycoprotein (Env) on pseudovirus (HIV-1)
# [5] = molecular target: HIV-1 93IN905 envelope glycoprotein (Env) on pseudovirus (HIV-1)
# [6] = molecular target: HIV-1 92UG024 envelope glycoprotein (Env) on pseudovirus (HIV-1)
# [7] = molecular target: HIV-1 MGRM-C-026 envelope glycoprotein (Env) on pseudovirus (HIV-1)
# [8] = molecular target: HIV-1 APV13 envelope glycoprotein (Env) on pseudovirus (HIV-1)
# [9] = molecular target: HIV-1 MGRM-D-018 envelope glycoprotein (Env) on pseudovirus (HIV-1)
# [10] = molecular target: aMLV envelope protein on pseudovirus (negative control virus)
# [11] = molecular target: HIV-1 CMU02 envelope glycoprotein (Env) on pseudovirus (HIV-1)
# [12] = molecular target: HIV-1 MGRM-C-028 envelope glycoprotein (Env) on pseudovirus (HIV-1)
# [13] = molecular target: HIV-1 93UG077 envelope glycoprotein (Env) on pseudovirus (HIV-1)
# [14] = molecular target: HIV-1 92TH021 envelope glycoprotein (Env) on pseudovirus (HIV-1)
# [15] = molecular target: HIV-1 APV6 envelope glycoprotein (Env) on pseudovirus (HIV-1)
# [16] = molecular target: HIV-1 NL43 envelope glycoprotein (Env) on pseudovirus (HIV-1)
# [17] = molecular target: HIV-1 MGRM-A-010 envelope glycoprotein (Env) on pseudovirus (HIV-1)
# [18] = molecular target: HIV-1 MGRM-AG-005 envelope glycoprotein (Env) on pseudovirus (HIV-1)
# [19] = molecular target: panel of 22 HIV-1 pseudoviruses of Table 52
# [20] = molecular target: HIV-1 JRFL envelope glycoprotein (Env) on pseudovirus (HIV-1)
# [21] = molecular target: HIV-1 MGRM-C-027 envelope glycoprotein (Env) on pseudovirus (HIV-1)
# [22] = molecular target: HIV-1 94UG103 envelope glycoprotein (Env) on pseudovirus (HIV-1)
# [23] = molecular target: HIV-1 92BR020 envelope glycoprotein (Env) on pseudovirus (HIV-1)
# [24] = molecular target: HIV-1 92RW020 envelope glycoprotein (Env) on pseudovirus (HIV-1)
binder,measurement,setting,value
B1,"IC50, pseudovirus neutralization",[1],> 10 mg/L
same,"IC50, pseudovirus neutralization",[2],> 10 mg/L
same,"IC50, pseudovirus neutralization",[3],0.113 mg/L
same,"IC50, pseudovirus neutralization",[4],> 10 mg/L
same,"IC50, pseudovirus neutralization",[5],0.0183 mg/L
same,"IC50, pseudovirus neutralization",[6],0.0139 mg/L
same,"IC50, pseudovirus neutralization",[7],0.0123 mg/L
same,"IC50, pseudovirus neutralization",[8],0.545 mg/L
same,"IC50, pseudovirus neutralization",[9],0.0433 mg/L
same,"IC50, pseudovirus neutralization",[10],> 10 mg/L
same,"IC50, pseudovirus neutralization",[11],> 10 mg/L
same,"IC50, pseudovirus neutralization",[12],2.16 mg/L
same,"IC50, pseudovirus neutralization",[13],> 10 mg/L
same,"IC50, pseudovirus neutralization",[14],> 10 mg/L
same,"IC50, pseudovirus neutralization",[15],> 10 mg/L
same,"IC50, pseudovirus neutralization",[16],6.79 mg/L
same,"IC50, pseudovirus neutralization",[17],> 10 mg/L
same,"IC50, pseudovirus neutralization",[18],> 10 mg/L
same,% neutralized,[19],54%
same,"median IC50, pseudovirus neutralization",[19],0.11 mg/L
same,"IC50, pseudovirus neutralization",[20],> 10 mg/L
same,"IC50, pseudovirus neutralization",[21],> 10 mg/L
same,"IC50, pseudovirus neutralization",[22],> 10 mg/L
B2,"IC50, neutralization of pseudovirus",[1],> 10 mg/L
same,"IC80, neutralization of pseudovirus",[1],> 10 mg/L
same,IC90 (neutralization of pseudovirus),[1],> 10 mg/L
same,"IC95, neutralization of pseudovirus",[1],> 10 mg/L
same,"IC50, neutralization of pseudovirus",[2],> 10 mg/L
same,"IC80, neutralization of pseudovirus",[2],> 10 mg/L
same,IC90 (neutralization of pseudovirus),[2],> 10 mg/L
same,"IC95, neutralization of pseudovirus",[2],> 10 mg/L
same,"IC50, neutralization of pseudovirus",[3],0.0089 mg/L
same,"IC80, neutralization of pseudovirus",[3],0.0317 mg/L
same,IC90 (neutralization of pseudovirus),[3],0.0669 mg/L
same,"IC95, neutralization of pseudovirus",[3],0.134 mg/L
same,"IC50, neutralization of pseudovirus",[4],0.474 mg/L
same,"IC80, neutralization of pseudovirus",[4],> 10 mg/L
same,IC90 (neutralization of pseudovirus),[4],> 10 mg/L
same,"IC95, neutralization of pseudovirus",[4],> 10 mg/L
same,"IC50, neutralization of pseudovirus",[5],0.0182 mg/L
same,"IC80, neutralization of pseudovirus",[5],0.272 mg/L
same,IC90 (neutralization of pseudovirus),[5],1.31 mg/L
same,"IC95, neutralization of pseudovirus",[5],5.48 mg/L
same,"IC50, neutralization of pseudovirus",[6],> 10 mg/L
same,"IC80, neutralization of pseudovirus",[6],> 10 mg/L
same,IC90 (neutralization of pseudovirus),[6],> 10 mg/L
same,"IC95, neutralization of pseudovirus",[6],> 10 mg/L
same,"IC50, neutralization of pseudovirus",[7],0.0173 mg/L
same,"IC80, neutralization of pseudovirus",[7],0.263 mg/L
same,IC90 (neutralization of pseudovirus),[7],1.32 mg/L
same,"IC95, neutralization of pseudovirus",[7],6.13 mg/L
same,"IC50, neutralization of pseudovirus",[8],0.0345 mg/L
same,"IC80, neutralization of pseudovirus",[8],0.573 mg/L
same,IC90 (neutralization of pseudovirus),[8],2.88 mg/L
same,"IC95, neutralization of pseudovirus",[8],> 10 mg/L
same,"IC50, neutralization of pseudovirus",[23],1.12 mg/L
same,"IC80, neutralization of pseudovirus",[23],> 10 mg/L
same,IC90 (neutralization of pseudovirus),[23],> 10 mg/L
same,"IC95, neutralization of pseudovirus",[23],> 10 mg/L
same,"IC50, neutralization of pseudovirus",[24],0.014 mg/L
same,"IC80, neutralization of pseudovirus",[24],0.508 mg/L
same,IC90 (neutralization of pseudovirus),[24],3.68 mg/L
same,"IC95, neutralization of pseudovirus",[24],> 10 mg/L
same,"IC50, neutralization of pseudovirus",[9],0.0378 mg/L
same,"IC80, neutralization of pseudovirus",[9],0.289 mg/L
same,IC90 (neutralization of pseudovirus),[9],2.31 mg/L
same,"IC95, neutralization of pseudovirus",[9],> 10 mg/L
same,"IC50, neutralization of pseudovirus",[10],> 10 mg/L
same,"IC80, neutralization of pseudovirus",[10],> 10 mg/L
same,IC90 (neutralization of pseudovirus),[10],> 10 mg/L
same,"IC95, neutralization of pseudovirus",[10],> 10 mg/L
same,"IC50, neutralization of pseudovirus",[11],> 10 mg/L
same,"IC80, neutralization of pseudovirus",[11],> 10 mg/L
same,IC90 (neutralization of pseudovirus),[11],> 10 mg/L
same,"IC95, neutralization of pseudovirus",[11],> 10 mg/L
same,"IC50, neutralization of pseudovirus",[12],> 10 mg/L
same,"IC80, neutralization of pseudovirus",[12],> 10 mg/L
same,IC90 (neutralization of pseudovirus),[12],> 10 mg/L
same,"IC95, neutralization of pseudovirus",[12],> 10 mg/L
same,"IC50, neutralization of pseudovirus",[13],> 10 mg/L
same,"IC80, neutralization of pseudovirus",[13],> 10 mg/L
same,IC90 (neutralization of pseudovirus),[13],> 10 mg/L
same,"IC95, neutralization of pseudovirus",[13],> 10 mg/L
same,"IC50, neutralization of pseudovirus",[14],0.0082 mg/L
same,"IC80, neutralization of pseudovirus",[14],0.0261 mg/L
same,IC90 (neutralization of pseudovirus),[14],0.0513 mg/L
same,"IC95, neutralization of pseudovirus",[14],0.0963 mg/L
same,"IC50, neutralization of pseudovirus",[15],> 10 mg/L
same,"IC80, neutralization of pseudovirus",[15],> 10 mg/L
same,IC90 (neutralization of pseudovirus),[15],> 10 mg/L
same,"IC95, neutralization of pseudovirus",[15],> 10 mg/L
same,"IC50, neutralization of pseudovirus",[16],> 10 mg/L
same,"IC80, neutralization of pseudovirus",[16],> 10 mg/L
same,IC90 (neutralization of pseudovirus),[16],> 10 mg/L
same,"IC95, neutralization of pseudovirus",[16],> 10 mg/L
same,"IC50, neutralization of pseudovirus",[17],0.0054 mg/L
same,"IC80, neutralization of pseudovirus",[17],0.0251 mg/L
same,IC90 (neutralization of pseudovirus),[17],0.0643 mg/L
same,"IC95, neutralization of pseudovirus",[17],0.164 mg/L
same,"IC50, neutralization of pseudovirus",[18],0.947 mg/L
same,"IC80, neutralization of pseudovirus",[18],> 10 mg/L
same,IC90 (neutralization of pseudovirus),[18],> 10 mg/L
same,"IC95, neutralization of pseudovirus",[18],> 10 mg/L
same,"IC50, neutralization of pseudovirus",[20],0.0346 mg/L
same,"IC80, neutralization of pseudovirus",[20],0.751 mg/L
same,IC90 (neutralization of pseudovirus),[20],5.72 mg/L
same,"IC95, neutralization of pseudovirus",[20],> 10 mg/L
same,"IC50, neutralization of pseudovirus",[21],0.0052 mg/L
same,"IC80, neutralization of pseudovirus",[21],0.0318 mg/L
same,IC90 (neutralization of pseudovirus),[21],0.106 mg/L
same,"IC95, neutralization of pseudovirus",[21],0.464 mg/L
same,"IC50, neutralization of pseudovirus",[22],0.635 mg/L
same,"IC80, neutralization of pseudovirus",[22],> 10 mg/L
same,IC90 (neutralization of pseudovirus),[22],> 10 mg/L
same,"IC95, neutralization of pseudovirus",[22],> 10 mg/L
B3,"IC50, pseudovirus neutralization",[1],> 10 mg/L
same,"IC50, pseudovirus neutralization",[2],> 10 mg/L
same,"IC50, pseudovirus neutralization",[3],> 10 mg/L
same,"IC50, pseudovirus neutralization",[4],> 10 mg/L
same,"IC50, pseudovirus neutralization",[5],0.0135 mg/L
same,"IC50, pseudovirus neutralization",[6],0.0915 mg/L
same,"IC50, pseudovirus neutralization",[7],0.0065 mg/L
same,"IC50, pseudovirus neutralization",[8],> 10 mg/L
same,"IC50, pseudovirus neutralization",[9],> 10 mg/L
same,"IC50, pseudovirus neutralization",[10],> 10 mg/L
same,"IC50, pseudovirus neutralization",[11],> 10 mg/L
same,"IC50, pseudovirus neutralization",[12],> 10 mg/L
same,"IC50, pseudovirus neutralization",[13],> 10 mg/L
same,"IC50, pseudovirus neutralization",[14],> 10 mg/L
same,"IC50, pseudovirus neutralization",[15],> 10 mg/L
same,"IC50, pseudovirus neutralization",[16],> 10 mg/L
same,"IC50, pseudovirus neutralization",[17],> 10 mg/L
same,"IC50, pseudovirus neutralization",[18],> 10 mg/L
same,% neutralized,[19],18%
same,"median IC50, pseudovirus neutralization",[19],0.05 mg/L
same,"IC50, pseudovirus neutralization",[20],> 10 mg/L
same,"IC50, pseudovirus neutralization",[21],> 10 mg/L
same,"IC50, pseudovirus neutralization",[22],> 10 mg/L
